According to the supplement of paper PMC12042874:
± gives the uncertainty stated by the source.

Experiment: amyloid nucleation score (Sup35N fusion, yeast selection) (log enrichment); library NNK1; higher = more nucleation; inactive = no reads after selection
Procedure, shortened: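 Libraries of peptides of 20 random codons fused to Sup35N were expressed in psi-negative yeast and induced 24 hours with 100 μM copper sulfate. Selection was 7 days at 30°C on medium lacking adenine and uracil, and plasmid inserts were Illumina-sequenced before and after selection. Nucleation score is the DiMSum log enrichment of output over input reads, centred on the mode score of non-aggregating sequences, and sequences with under 100 input reads were left out.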

Substance	amyloid nucleation score
RELLGGVRNRLVYR	-0.192 ± 0.23
RESASSNGYVYILCMQRVPR	0.102 ± 0.34
RFASISYVGTNSGLDVQSNW	0.171 ± 1.2
RFGGD	-0.388 ± 0.57
RFHCYWTPRTLSMASSTPWM	0.47 ± 0.45
RFISCMFFKYIPLQCFVLGR	0.548 ± 0.39
RFISVMSLSLLNNNFIEAHV	0.55 ± 0.6
RFLGSWCSIYIGRCVMFDRG	1.13 ± 0.28
RFLLLPAHPGPGVSMVYRYL	0.077 ± 0.9
RFNWFL	-0.285 ± 0.86
RFNYVYFINRNMNEPRRGSL	6.452 ± 0.061
RFSITSGNYFNN	-0.971 ± 0.79
RFSQWLPFWSVGGELQSCFC	0.239 ± 0.68
RFVWKDDTHQAIGTFLMSQG	1 ± 0.54
RGAQARSQCCMVVMSVESRS	0.628 ± 0.46
RGCPAFDNVTSYDESSEWSY	0.365 ± 0.62
RGCSFFWCPLCRGYGGCLCC	0.482 ± 0.74
RGGMIPGYTPAMYHWMLFKS	0.185 ± 0.47
RGNWIRS	-0.533 ± 0.77
RGSEPAIGLMMVLP	0.458 ± 0.41
RGSNAMDYSEVFCWMYNDLL	1.11 ± 0.58
RGYSGTTTHAATATKLS	1.56 ± 0.78
RHALGLFRSGLGMDMDDNGS	inactive
RHCPLAVFRKSPLLAIGKFG	-0.685 ± 0.66
RHGVRYSKLELINTREFYNE	-0.246 ± 0.9

Substance	amyloid nucleation score
RHSFGLFVSRLVRFREDGYY	-0.508 ± 0.52
RHYGGAFQRLYRMSGPMT	-1.05 ± 0.96
RICGGTSFDSRNGLKLGRKG	0.034 ± 0.64
RIFLLVTHVACAMPLFHKTR	0.83 ± 0.75
RIGRKDLLFWVPTCRHVLLL	0.416 ± 0.28
RIGVLNCWEVWADVTQREHL	-0.769 ± 1.1
RINMGNYSLKWNMFTKVSLK	-0.227 ± 0.35
RINVSGWQLQATLSFLLAFS	0.289 ± 0.5
RIRLVCHCPFSYRLAVPLSE	3.99 ± 0.1
RISTCIEILYDS	-0.587 ± 0.37
RIVSSFLLSVVGCGMEVVRV	0.349 ± 0.63
RIYRFLKLLIRGGVISVARY	-0.758 ± 1.9
RKFGPMG	0.848 ± 1
RKGSVSQRDYSIDYWGFCRC	1.37 ± 0.22
RKLFDCGINACSLRYVTSYR	inactive
RKLFYG	-0.017 ± 0.39
RKLLSISL	0.22 ± 0.71
RKNTDVTENEYRWAIF	-0.522 ± 1.9
RKPVVGSFIFTTFCKSYVDV	2.9 ± 0.1
RKSDEGMKSPIGREIMGKSM	0.431 ± 0.9
RKSVFNTLLFVE	0.569 ± 0.33
RKYEGGRAKVWHGPCSVS	1.07 ± 0.76
RLASYHITVYRHTRSIVQ	0.612 ± 0.29
RLCIVLSRHMPYTDRMLVMP	0.259 ± 0.26
RLFHIGGRGVRYYRLDVAMH	-0.264 ± 1.2

Substance	amyloid nucleation score
RLFLKPAQWPNH	0.562 ± 0.67
RLGRNVNEHRVPLVLACVED	0.964 ± 0.93
RLIENFGPHYRSSPVFDVVV	1.33 ± 0.79
RLIYRCLKSGCVFPWLSRMS	-0.571 ± 1.1
RLLGLHWIT	1.5 ± 0.54
RLMNRFMPKSLLLLLPVFVR	inactive
RLNVQLAGSVGVVWFICNWA	5.98 ± 0.056
RLPWLRAQNANLVLLLVNRR	4.9 ± 0.074
RLRVVL	-0.537 ± 0.64
RLSHKNGVCTLAFIYVPDNA	inactive
RLSSPVSI	0.028 ± 0.68
RLSSRVIRKNFDYQTFCHED	0.414 ± 0.34
RLTFVYHRMERVKKDYCS	inactive
RLTLLRLVLV	0.945 ± 0.51
RLVSFKCFCFLFLIDFMQGV	0.495 ± 0.45
RLYRWPIWWWVSLSEMGISQ	-0.205 ± 0.35
RLYWWDVMTSNMFVMAFRSR	inactive
RMFCPHCDYLVSVFSWNPRC	1.54 ± 0.57
RMFWANLQVSVNFGDKRVKY	4.13 ± 0.091
RMIDMGTDTVFCLMSFARIN	-0.354 ± 0.22
RMIIYNKYRCNSYLTNMGFG	2 ± 0.34
RMPRCKVFSVFSLLHAQY	1.35 ± 0.9
RMVGYVRGMAFRRSVSRRIG	0.311 ± 0.68
RMVIMLMGTHDRPFWGITGS	0.925 ± 0.63
RNCNTT	0.034 ± 0.61

Substance	amyloid nucleation score
RNIATYYFRSN	0.612 ± 0.48
RNKMMWLIICQGPPYRAWSP	5.07 ± 0.07
RNNCEMCLGFLS	0.827 ± 0.37
RNNIFFF	7.399 ± 0.059
RNNQSHGMNYFFESCVVFYC	7.8 ± 0.047
RNSITEIPCPEMYSNNRLAF	1.13 ± 0.12
RNVRGSSKT	1.37 ± 0.48
RPFLIIKLLGVGLSVKPNCG	-0.158 ± 0.64
RPHECRSWAPVRALSGDAHL	2.91 ± 0.13
RPNCIVINGVKWYSAYWIGI	-0.915 ± 0.67
RPQYLCAAVHEVQRFGHNR	-0.79 ± 0.51
RPSPEGY	1.37 ± 0.84
RPTYMCSGTGDFLHFVFR	4.64 ± 0.053
RPVWHSFHMVFWNSASY	0.172 ± 0.45
RQDQLFPICEDSTT	0.612 ± 0.97
RQDVT	0.281 ± 0.61
RQGLSAGSRYIK	-0.311 ± 0.69
RQIGTAFSDYLHGWCVFSFR	3.88 ± 0.11
RQSWPGYFVCSYQCVRMGNR	-0.084 ± 0.3
RRDSYFCVWYFWGPDEGCPF	4.46 ± 0.1
RRFPRMWGLCMSLFRSHCGS	1.92 ± 0.27
RRIGIGYGLLCRAWAYLYVL	-0.477 ± 1.2
RRLLTCGGSPYRQLR	-0.078 ± 0.98
RRLSMIMLFNPLSIWCFAQS	0.408 ± 0.5
RRSCRRTGGTSASKPSRQAF	0.013 ± 0.45

Substance	amyloid nucleation score
RRSLYYGITIN	-0.337 ± 0.32
RRTTSMERYCR	0.291 ± 0.43
RRWALRYINSATLFFLKVIG	-0.661 ± 0.93
RRWFYLGAFVYKSNTIDVGV	-0.214 ± 0.35
RRYCKLLVWRQLTSYHGRQA	0.527 ± 0.49
RRYRSWGGV	-0.267 ± 0.35
RSADTLVEKNLIYGRWVRKS	0.93 ± 1
RSCELGFDPVKKFFRIRIWG	-0.006 ± 0.47
RSDNSCRRLLEDWRSWRRAV	inactive
RSELI	-0.211 ± 0.36
RSFDLRSSTTLERLFFHMCA	-0.493 ± 0.88
RSGLCFMCSFEKSVSSR	0.255 ± 0.3
RSHGKAEFEHVGLKFIAG	-0.903 ± 1.7
RSICWKSFRRIFFDRW	0.19 ± 0.85
RSIFSWSTR	0.641 ± 0.42
RSIPSMEVSVMK	-0.805 ± 0.73
RSLCHAQRFGWMC	-1.7 ± 1
RSNNSFCIPLSFMCYVYQAT	-0.172 ± 1.6
RSSMYKYV	0.523 ± 0.26
RSSRAPWRSSCGGMF	-0.494 ± 0.48
RSVAHSYT	0.661 ± 0.54
RSVRLMNRVSGWNMWWKDGT	-0.535 ± 1.2
RSYSSLSR	0.792 ± 0.58
RTGRAYLWGSWSLEHHNLGG	inactive
RTKCKASISNIPTRWYDP	-0.469 ± 1.2

Substance	amyloid nucleation score
RTNSSSVCSILKGLSQ	-0.535 ± 1.1
RTPCLSESGPFSGFQHPGDI	-0.66 ± 1.2
RTSSIMSFPQCSCYSRRGVL	1.73 ± 0.33
RVDTL	0.694 ± 1.1
RVDTLYKVHLSKIRPSGGST	-0.096 ± 0.75
RVFRASNDR	0.241 ± 1.1
RVIAYKANPVNTFSYPVWAE	-0.133 ± 0.44
RVLCICFEYINHRAGGSKSF	-0.08 ± 0.95
RVPCCGSYKGVFYEFTFSRG	0.957 ± 0.49
RVSCFRTRDRIFGVFTQSQV	-0.314 ± 1.2
RVSRFELAIVSVEGSYWVPE	0.607 ± 0.36
RVVVCRWVDRYGIAASGAIT	0.643 ± 0.54
RVWYGFYCELITTPRFASGV	-0.322 ± 1.7
RWAWVDYNLCRVCLTKYS	-0.161 ± 0.58
RWFRNAIGGIL	-0.586 ± 0.59
RWLPPLRVRIRDHTHIITDK	2.22 ± 0.17
RWMPFISLSVNLTGNYLIRL	2.25 ± 0.27
RWNRSSDTCLCLHSMMLT	-0.518 ± 1.1
RWPRCYYNLGKCTDISLTWS	2.56 ± 0.18
RWSAFSVYAWGAYKLRC	2.41 ± 0.11
RYARLMYASACCSSC	-0.404 ± 0.52
RYCHVLIVIAQANQSFKDVQ	7.725 ± 0.056
RYCYRGHMFLFQTSLFKCSS	-0.354 ± 0.83
RYHSPEYTARTLMG	0.264 ± 0.44
RYISYAKCRNYNGLIMYYLY	2.52 ± 0.11

Substance	amyloid nucleation score
RYRWRL	inactive
RYRWTSLVFLGMTQH	0.75 ± 0.38
RYSCY	0.152 ± 0.6
RYSSVKLEMKSQVVIELTLI	1.09 ± 0.76
RYVETNSGAE	0.669 ± 0.43
RYYCFPTQLIHLTTT	-0.755 ± 0.55
RYYLMVFFKWIFEIWKMVLK	-0.646 ± 0.28
RYYMGTIWILGEFGSLFWMM	0.06 ± 0.39
SACFVARSVVCDWGCAGYMF	2.67 ± 0.28
SACLQVWE	0.284 ± 0.4
SACSESSVIWTNFH	0.292 ± 0.39
SALILVFFYWA	1.31 ± 0.3
SALLEQRLSSGLDVAISLRI	-0.368 ± 0.9
SANDFKMWGMVDKFGVMVLL	inactive
SAPMVFESDPREFAAGMSRL	-0.53 ± 0.39
SARRRRYGEAGSLGHELQWT	0.675 ± 0.78
SATTIFFRYSKIREFRLVFG	inactive
SAVTDQLMV	0.119 ± 0.45
SAWSGR	0.104 ± 0.3
SAYSILSTMFIYFVKSQGTD	3.38 ± 0.058
SCACYGWSVYSLGNANRVLS	0.465 ± 0.69
